The record followed here is the RNAGym collection of RNA variant scans (doi:10.1073/pnas.2313332121).

The labels stand for the following.
B1: TPR t1 (parent)
chain: GACCAAUCUGCCCUCAGAGCUCGAGAACAUCUUCGGAUGCAGAGGAGGCAGGCUUCGGUGGCGCGAUAGCGCCAACGUCCUCAACCUCCAAUGCAUCCCACCACAUGAUGAUGCCUGAAGAGCCUUGGUUUUUUG

In the data set the parent is B1. Nature of the data set: polymerase ribozyme fitness, log enrichment relative to wild type (log ratio); higher = more active; in vitro selection for triplet polymerase activity. The gist of the method: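 Mutant libraries of both subunits of a heterodimeric triplet polymerase ribozyme were PCR-built, transcribed, and selected once in triplicate, with frozen incubation at −7 °C and capture of gel-excised extended constructs on streptavidin beads before RT-PCR. Illumina sequencing of input and output libraries was filtered to genotypes with ≥10 input reads and ≥1 read per output. Fitness is the logarithm of genotype enrichment over wild-type enrichment, using inverse-variance-weighted replicate averages. The logarithm is base 2.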
With A5C C20A A43C G44C G71A C97U U106A C115A, the “polymerase ribozyme fitness (log ratio)” value was -6.63.
The figure for C4U C76G C123A is -0.394; for C4U C53U C82A U129C it is -2.91.
The figure for A5C C28U G57C is -3.47; for C4U C13A A26U U55G C62U it is -4.16; for C4U A74U U92G it is -3.59.
The figure for A5C C62U is -0.355.
As for A5C A24U, the “polymerase ribozyme fitness (log ratio)” value is -5.29.
Next, C4G G61C C82G C123U: -3.08; C4G A16G C97U C123U G127A: -4.37; A5C C49G C53A U54G C98U U106A G128U: -2.13.
The figure for C4U C8G G36U U38A G44U C124A is -5.08.
The figure for C4U G48C G61U C98U U112C is -0.785; for C4U C34A G52C C99A C102U U106C it is -6.
Take A5C C79U C104A: the “polymerase ribozyme fitness (log ratio)” value was -2.03.
Next, C4G C72A C86U U112C G122A G135C: -0.311; C4G A18C C22U C72G G93U U109C G117C: -5.69; A5C C8G C40U U112G U133G: -0.864.
The figure for C4G C8G C40G C124U is 0.299; for C4G C8G C72U A121G it is 1.81.
Turning to C4G G61U G93A, the “polymerase ribozyme fitness (log ratio)” value is -2.57.
Next, A5C C13U A83G: -1.43; C4G C34A G69U C97U C114A G122U C123A: -3.31; A5C A26U: -5.
Regarding A5C G10A C34A G63U C123U, the “polymerase ribozyme fitness (log ratio)” value was -4.02.
For the variant A5C G47U G48C G71A C102A, the “polymerase ribozyme fitness (log ratio)” value was -6.35.
The figure for A5C G23U G71C U112C U126A U131A is -4.82.
Next, C4G U9C U112C G117A: -1.01.
The figure for C4U G17U G48A U54G G61A G77U U130C is -3.69; for C4G G110U it is -2.64; for C4G A18U it is -4.14.
As for A5C C12U, the “polymerase ribozyme fitness (log ratio)” value amounted to 0.118.
For the variant A5C C28U U59C C123U, the “polymerase ribozyme fitness (log ratio)” value was -3.1.
Next, A5C G44A A111U: -5.64.
The figure for C4G A111C is -0.384.
On to C4U A50G G93A G117U A118U, for which the “polymerase ribozyme fitness (log ratio)” value was -4.55.
For C4U C97A, the “polymerase ribozyme fitness (log ratio)” value was -5.21.
The figure for C4U G52A C114A is -2.66; for A5C C15G U54G C89U U116G G117A C124G it is 0.693.
On to C4G U7C C34U U38G U54G G69U U109A A111G, for which the “polymerase ribozyme fitness (log ratio)” value is -5.81.
Turning to C4G G44U C88A C124A, the “polymerase ribozyme fitness (log ratio)” value was -1.23.
Next, C4G C8U C12A G42A G71A U106A U112G: -4.39; C4U U59A: -0.304.
The figure for C4U G60U is -0.43.
Next, C4G C64U C115A C123A: -3.09; C4G G44U U96A A100U: -3.73; C4G C64U U106C C115G: -5.73.
In the case of A5C C115U G120A G122A U134G, the “polymerase ribozyme fitness (log ratio)” value was -4.36.
For C4U G44U G61A C80G C89G C114U U131G, the “polymerase ribozyme fitness (log ratio)” value is -7.14.
Consider C4G A37G C49G G113C, for which the “polymerase ribozyme fitness (log ratio)” value was -4.25.
The figure for C4U G44C C64U A119U U133A is -2.68; for C4G U96A G127U it is -1.19; for C4U G51U A121C it is -1.96.
As for A5C G48A, the “polymerase ribozyme fitness (log ratio)” value was -1.85.
On to C4U G39U G71U G117A U133A, for which the “polymerase ribozyme fitness (log ratio)” value was -3.6.
The figure for C4G C88A is -2.51; for C4G U21C G45A U78A C124G it is 0.886.
As to A5C A18G G63C C88A C101A G120U, the “polymerase ribozyme fitness (log ratio)” value is -4.57.
The figure for C4U U78C is -0.902.
As to C4U U59A C62A A100C U106A C124G, the “polymerase ribozyme fitness (log ratio)” value is -0.734.
Next, C4U C11G: 0.407; C4G A41C G77A A95C: -3.4; C4U U54A C62G G93C G120U U130C: -5.69.
Next, C4U G63U C124G: 0.825; C4G U9A U78C U87G C104A C123U: -2.05; C4G C49A: -2.14.
Next, A5C C12U G48A: -0.983; A5C C72U C82G U87A C123G: -3.15; C4G A5G C11U C73G C89A G113U C114U G122U U129G: -5.02.
With C4U G71U, the “polymerase ribozyme fitness (log ratio)” value was -0.506.
Next, C4U A18C C53A C88G: -3.41; C4U C70A G128C: -4.51.
The figure for C4G U9C C70U C89U U96A is -3.09.
The figure for C4U A41U is -1.8; for C4G A5U it is -2.76.
Take C4G C12U G60U C89G A111U: the “polymerase ribozyme fitness (log ratio)” value was -5.57.
For C4G U14A C73G G120A, the “polymerase ribozyme fitness (log ratio)” value is -3.16.
The figure for A5C A6U G69U A121G is 2.34; for C4U C12G C15G G117C it is 0.829.
A5C G35A A41U U112A: the “polymerase ribozyme fitness (log ratio)” value is -5.8.
Next, C4U C49U: -0.875; A5C G17U G120A: -3.4; C4G C8G C11A U14G G69C C124U: -2.77.
Next, C4G C56A: -2.34; A5C G45U C62U: -1.97.
The figure for C4G U9G G61U G120C is 0.941; for A5C C15G G61A C114U it is -6.53; for C4G U7C C56U G60U C101A it is -6.75.
For C4G C114U, the “polymerase ribozyme fitness (log ratio)” value is -3.57.
C4U A66G C124G: the “polymerase ribozyme fitness (log ratio)” value was found to be 0.544.
Next, C4U G47A C56U C73U C101U A119G G120U G127A: -0.428; C4U G47A G107U C124U: -3.15; C4U C13U U38A C53A: -1.25.
Next, A5C G45A A83C U87G G120A U131A: -0.712; A5C A6U U32C G69C: -1.62.
Next, C4G C12A C15A C73U C94A C99U G110C: -7.24.
Turning to A5C G19A C89A C124G, the “polymerase ribozyme fitness (log ratio)” value is -1.76.
Consider C4U A43U C56G C89U U112C, for which the “polymerase ribozyme fitness (log ratio)” value was -0.836.
The figure for C4G C20U G48C G63A C123G is -2.25.
Regarding C4A U130G, the “polymerase ribozyme fitness (log ratio)” value is -1.85.
The figure for A5C A118U U133A is -1.14; for A5C C22A it is -4.57; for C4U C12G G17C G48A U54C C104A C115G it is -2.54.
The figure for C4G C15A U54A A121C is -2.91.
Next, C4U G48U G93A: -2.39; A5C A37U G39C C86A C124G: -3.87; C4U C11G G60A C72G C82U C97U A108G G120A: -3.71.
For the variant A5C C8A A37C G42U C104U, the “polymerase ribozyme fitness (log ratio)” value is -2.13.
The figure for C4U G110A is -1.37; for C4U G110U it is -1.93; for C4G G61C G69U U112A it is -1.95.
Next, C4U C11G C49U G51A C72U C80U C94G: -1.9; C4U C34A A90C C114G G135A: -5.15.
Regarding A5C A18C C123A U130A, the “polymerase ribozyme fitness (log ratio)” value is -1.87.
The figure for A5C C49U C53A is -1.24.
The figure for C4U C49U G52A is -3.12.
For A5C G47A A66G, the “polymerase ribozyme fitness (log ratio)” value was -3.08.
In the case of A5C C73A C102A, the “polymerase ribozyme fitness (log ratio)” value is -2.49.
Next, C4U G44U C53U C86G: -3.52; C4U U109A: -5.02; C4U G19A C56G U106A C123G: -3.72.
Next, C4G C12G G61C C79A C82A C124U: -3.71; C4U G69C C82A C88G A91U U106A: -5.66.
Consider C4G G57A G58C A95C G113U U125C, for which the “polymerase ribozyme fitness (log ratio)” value was -6.6.
Consider C4G G42A, for which the “polymerase ribozyme fitness (log ratio)” value is -3.06.
The figure for C4U G135U is -1.43; for C4G C80U A83C C88U it is -5.05; for C4U G63A it is -1.64.
Take C4G C49G G60C A119U U133A: the “polymerase ribozyme fitness (log ratio)” value is -3.77.
Next, C4U G51C: -2.89; A5C C72A U96A G127A: -2.31; C4U A18G: -3.62.
Regarding C4G C12A, the “polymerase ribozyme fitness (log ratio)” value is -1.87.
The figure for C4G C12G is -1.12; for C4G C12U C56A C70U A111C U126A it is -3.03.
For C4U G69U, the “polymerase ribozyme fitness (log ratio)” value is -0.399.
The figure for C4U G69A is -2.91; for C4U C70U C80A it is -5.32.
Next, C4G C8G A26G G120U: -0.664.
The figure for A5C G45U C73G U81C G120A G122U is -3.02; for C4U G71A G77U it is -1.79; for C4U A37G A50C C82A it is -1.39.
A5C A18G: the “polymerase ribozyme fitness (log ratio)” value is -4.19.
C4G G63A U106G A118G C123G: the “polymerase ribozyme fitness (log ratio)” value was -2.77.
The figure for C4G C79U C104U is -1.62; for A5C C53G U92G G117C U129C U133C it is -5.53.
Next, C4U G10C C20A G48U A119G: -3.45; A5C C13U A84C U131A: -2.02.
The figure for C4G G44U G61U A66U C72G C82A C85A A111C is -6.11; for C4U A16G G60C C79A it is -4.11; for C4U A5C C12G C62U C89U C123G it is -1.41.
As for C4U C12U C13U G69C C124G, the “polymerase ribozyme fitness (log ratio)” value was -0.455.
The figure for C4U G48U U92G G113C is -3.72; for C4G U21A A24G A46U U125A it is -4.02.
The figure for C4U U9G A24U G57C G58U A84G C85A C114G C123G is -7.47; for C4G A37U A90C it is -2.66.
Regarding C4G U9A C62G U92A A95G U112C G113A, the “polymerase ribozyme fitness (log ratio)” value is -5.53.
The figure for C4G C11G C40A G60A C101G U106C is -4.19; for C4G A5U U55C G113A it is -4.56; for A5C C98U U112A G128C it is -4.48.
Take C4G C40G: the “polymerase ribozyme fitness (log ratio)” value was -2.02.
Regarding C4G C40U, the “polymerase ribozyme fitness (log ratio)” value was -1.78.
The figure for C4U G61C is -2.8.
Next, C4U G61U: -0.685; C4U C13G C56G C72U C73A: -5.32.
Take A5C G39U C64A A68U U116C G127U: the “polymerase ribozyme fitness (log ratio)” value was -5.8.
Next, C4U C12U G61A: -0.369.
